Molecular target: RipA fused to the Nanoluciferase large subunit (CEPlac-lgbit-ripA)
Test: split-luciferase assay
Conditions: in S. pneumoniae cells, signal relative to control strains R5380 and R5570, read off a plot

**Q.** For “DnaN fused to the Nanoluciferase small subunit (CEPIIlac-smBit-dnaN) (from UniProt O06672) H183P”, which response (relative fold induction) (strain R5566 vs R5381, parent: est. 22) is on record?
**A.** 4.8

**Q.** With “DnaN fused to the Nanoluciferase small subunit (CEPIIlac-smBit-dnaN) (from UniProt O06672) L185R” as the substance, how does the response (relative fold induction) (strain R5567 vs R5381, parent: est. 27) read?
**A.** 5.5

**Q.** How did the response (relative fold induction) (strain R5568 vs R5381, parent: est. 13) turn out when “DnaN fused to the Nanoluciferase small subunit (CEPIIlac-smBit-dnaN) (from UniProt O06672) Y249N” was run?
**A.** 4.8

Source: paper PMC12795458
